The source of these data is publication PMC6761149.

The target of this data set is Q8DLC1. Description: SAXS; ESRF BM29, 10 °C, 20 mM Tris/HCl pH 7.5, 500 mM NaCl, 20% (v/v) glycerol; dark holoprotein (NADPH, Pchlide) at 0.65 mg ml^-1; monomer content from I(0). The following applies: other: SAXS.

B1: light-dependent protochlorophyllide oxidoreductase of Thermosynechococcus elongatus BP-1 (TeLPOR) (protein)
chain: MSDQPRPTVIITGASSGVGLYATKALANRGWHVIMACRNLEKAEQAAKNLQIPPEAYTILHLDLSSLASVRGFVESFRALNRPLRALVCNAAVYYPLLKEPIYSVDGYEITVATNHLGHFLLINLLLEDLKNSPESDKRLVILGTVTANRKELGGKIPIPAPPDLGNLEGFEKGFKKPIAMINGKPFKSGKAYKDSKLCNMLTARELHRRFHESTGIVFNSLYPGCVADTPLFRHHFPLFQKLFPLFQKKITGGYVSQELAGERVAMVVADPEFRQSGVHWSWGNRQKEGRKAFVQELSAEASDEQKARRLWELSEKLVGLA
As to B1, the “monomer content from I(0), with NADPH and Pchlide” value is “monomer content from I(0): 85.9%”.
